Assay results reported in paper PMC3840220.

Target: bromelain-released influenza hemagglutinin (X31) (influenza virus X31)
Test: […]

Substance: bromelain-released influenza hemagglutinin (X31) (domain or fragment)
- stoichiometry N: 3
